# Results: patent publication US20250032632A1 (published 2025)
# How the values were obtained:
# [1] = target: T1, rat cMET (ELISA antigen) (rat, UniProt P97523 25-935, limits assumed); assay: ELISA on rat cMET, relative to parental P3D12
# T1 construct: also called rMET
# [2] = target: T2, human cMET (ELISA antigen) (human, UniProt P08581 25-932, limits assumed); assay: ELISA on human cMET, relative to parental P3D12
# T2 construct: also called hMET
# T2 sequence (P08581 25-932 limits assumed): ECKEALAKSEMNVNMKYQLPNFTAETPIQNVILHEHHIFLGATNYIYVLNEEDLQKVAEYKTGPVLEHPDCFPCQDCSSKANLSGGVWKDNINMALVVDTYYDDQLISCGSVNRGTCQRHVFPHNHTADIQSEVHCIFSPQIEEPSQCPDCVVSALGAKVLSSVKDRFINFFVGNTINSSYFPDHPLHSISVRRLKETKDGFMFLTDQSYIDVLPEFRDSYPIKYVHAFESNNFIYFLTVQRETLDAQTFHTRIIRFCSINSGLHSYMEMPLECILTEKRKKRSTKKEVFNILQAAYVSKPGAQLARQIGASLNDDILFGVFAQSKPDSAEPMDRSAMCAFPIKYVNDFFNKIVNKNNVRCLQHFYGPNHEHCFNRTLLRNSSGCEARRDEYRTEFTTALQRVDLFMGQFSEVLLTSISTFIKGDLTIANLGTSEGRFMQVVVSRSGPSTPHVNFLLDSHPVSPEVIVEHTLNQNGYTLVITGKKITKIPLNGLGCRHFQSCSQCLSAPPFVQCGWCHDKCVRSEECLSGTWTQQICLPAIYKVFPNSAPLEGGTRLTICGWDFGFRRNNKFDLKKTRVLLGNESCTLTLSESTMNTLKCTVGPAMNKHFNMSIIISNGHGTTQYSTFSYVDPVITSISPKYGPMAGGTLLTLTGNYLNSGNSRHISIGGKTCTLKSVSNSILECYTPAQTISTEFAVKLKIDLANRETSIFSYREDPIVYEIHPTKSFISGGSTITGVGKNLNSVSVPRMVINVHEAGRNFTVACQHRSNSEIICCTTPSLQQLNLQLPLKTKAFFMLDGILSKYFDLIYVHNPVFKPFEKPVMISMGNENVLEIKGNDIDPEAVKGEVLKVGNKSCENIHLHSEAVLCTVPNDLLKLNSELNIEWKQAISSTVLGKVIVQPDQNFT
# T1 sequence (P97523 25-935 limits assumed): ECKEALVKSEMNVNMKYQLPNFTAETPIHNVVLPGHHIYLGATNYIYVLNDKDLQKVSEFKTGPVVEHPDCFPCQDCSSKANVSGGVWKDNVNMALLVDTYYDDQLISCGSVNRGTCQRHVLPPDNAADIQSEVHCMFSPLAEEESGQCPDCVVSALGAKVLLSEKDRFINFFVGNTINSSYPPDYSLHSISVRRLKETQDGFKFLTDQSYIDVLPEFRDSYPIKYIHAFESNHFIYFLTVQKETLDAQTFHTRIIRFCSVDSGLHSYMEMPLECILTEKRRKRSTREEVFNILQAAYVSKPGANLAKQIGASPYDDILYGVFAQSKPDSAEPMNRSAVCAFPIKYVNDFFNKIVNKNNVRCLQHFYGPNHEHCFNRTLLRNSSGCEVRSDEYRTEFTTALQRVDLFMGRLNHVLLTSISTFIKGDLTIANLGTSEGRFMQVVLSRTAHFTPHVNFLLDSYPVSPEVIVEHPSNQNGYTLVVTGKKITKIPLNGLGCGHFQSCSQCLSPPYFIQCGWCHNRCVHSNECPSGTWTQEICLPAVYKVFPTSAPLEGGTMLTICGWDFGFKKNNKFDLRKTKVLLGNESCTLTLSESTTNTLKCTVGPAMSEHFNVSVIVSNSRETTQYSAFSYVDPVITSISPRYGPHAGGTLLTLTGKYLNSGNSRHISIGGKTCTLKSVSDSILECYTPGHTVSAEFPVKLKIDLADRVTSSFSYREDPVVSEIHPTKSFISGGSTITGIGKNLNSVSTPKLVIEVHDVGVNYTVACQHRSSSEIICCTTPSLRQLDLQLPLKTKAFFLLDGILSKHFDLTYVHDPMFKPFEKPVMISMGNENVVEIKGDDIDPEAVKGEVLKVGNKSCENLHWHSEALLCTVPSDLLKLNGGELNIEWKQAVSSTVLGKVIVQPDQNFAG
Binder,ELISA rMET vs parental [1] [fold vs parental],ELISA hMET vs parental [2] [fold vs parental]
"G2akv (humanized P3D12, VH-abb/sdr + VL-ven) (antibody, V domains shown, Humanized and isotype switched version of P3D12) VH: QVQLVQSGAEVKKPGASVKVSCKASGYTFTSYWMHWVKQAPGQGLDWMGYIKPSTDNTEYAQKFQGRVTLTADKSTSTAYMELSSLRSEDTAVYYCARSYGNYPLMDYWGQGTTVTVSS VL: QIVLTQSPATMSASPGERVTLSCSASSSVTSNYLYWYQQKPGSSPRLWIYSTSNLASGVPARFSGSGSGTSYTLTISRMEPEDAASYFCHQWSSYPPTFGSGTKLEIKR",1.3,1.6
"G2fkv (humanized P3D12, VH-fra + VL-ven) (antibody, V domains shown, Humanized and isotype switched version of P3D12) VH: QVQLQQSGAEVKKPGASVKVSCKASGYTFTSYWMHWVKQRPGQGLDWIGYIKPSTDNTEYNQKFKDRVTLTADKSTSTAYMQLSNLISEDTAVYYCARSYGNYPLMDYWGQGTSVTVSS VL: QIVLTQSPATMSASPGERVTLSCSASSSVTSNYLYWYQQKPGSSPRLWIYSTSNLASGVPARFSGSGSGTSYTLTISRMEPEDAASYFCHQWSSYPPTFGSGTKLEIKR",1.2,1.7
"G2ckv (humanized P3D12, VH-cdr + VL-ven) (antibody, V domains shown, Humanized and isotype switched version of P3D12) VH: QVQLVQSGAEVKKPGASVKVSCKASGYTFTSYWMHWVKQAPGQGLDWIGYIKPSTDNTEYNQKFKDKATLTADKSTSTAYMELSSLRSEDTAVYYCARSYGNYPLMDYWGQGTTVTVSS VL: QIVLTQSPATMSASPGERVTLSCSASSSVTSNYLYWYQQKPGSSPRLWIYSTSNLASGVPARFSGSGSGTSYTLTISRMEPEDAASYFCHQWSSYPPTFGSGTKLEIKR",1,1.1
"G2fka (humanized P3D12, VH-fra + VL-abb/sdr) (antibody, V domains shown, Humanized and isotype switched version of P3D12) VH: QVQLQQSGAEVKKPGASVKVSCKASGYTFTSYWMHWVKQRPGQGLDWIGYIKPSTDNTEYNQKFKDRVTLTADKSTSTAYMQLSNLISEDTAVYYCARSYGNYPLMDYWGQGTSVTVSS VL: QIVLTQSPATLSLSPGERATLSCRASQSVTSNYLYWYQQKPGSSPRLLIYSTSNLASGVPARFSGSGSGTDYTLTISRLEPEDFASYFCHQWSSYPPTFGSGTKLEIKR",3.8,1.8
"G2fkc (humanized P3D12, VH-fra + VL-cdr) (antibody, V domains shown, Humanized and isotype switched version of P3D12) VH: QVQLQQSGAEVKKPGASVKVSCKASGYTFTSYWMHWVKQRPGQGLDWIGYIKPSTDNTEYNQKFKDRVTLTADKSTSTAYMQLSNLISEDTAVYYCARSYGNYPLMDYWGQGTSVTVSS VL: QIVLTQSPATLSLSPGERATLSCSASSSVTSNYLYWYQQKPGSSPRLLIYSTSNLASGVPARFSGSGSGTSYTLTISRLEPEDFASYFCHQWSSYPPTFGSGTKLEIKR",2.3,1.7

# Other lines, results leading:
ELISA rMET vs parental [1] [fold vs parental],ELISA hMET vs parental [2] [fold vs parental],Binder
1.9,1.1,"G2vkc (humanized P3D12, VH-ven + VL-cdr) (antibody, V domains shown, Humanized and isotype switched version of P3D12) VH: QVQLVQSGAEVAKPGASVKMSCKASGYTFTSYWMHWVKQAPGQGLDWIGYIKPSTDNTEYNQKFKDKATLTADKSTSTAYMQLSSLRSEDTAVYYCARSYGNYPLMDYWGQGTTVTVSS VL: QIVLTQSPATLSLSPGERATLSCSASSSVTSNYLYWYQQKPGSSPRLLIYSTSNLASGVPARFSGSGSGTSYTLTISRLEPEDFASYFCHQWSSYPPTFGSGTKLEIKR"
2.7,0.9,"G2vka (humanized P3D12, VH-ven + VL-abb/sdr) (antibody, V domains shown, Humanized and isotype switched version of P3D12) VH: QVQLVQSGAEVAKPGASVKMSCKASGYTFTSYWMHWVKQAPGQGLDWIGYIKPSTDNTEYNQKFKDKATLTADKSTSTAYMQLSSLRSEDTAVYYCARSYGNYPLMDYWGQGTTVTVSS VL: QIVLTQSPATLSLSPGERATLSCRASQSVTSNYLYWYQQKPGSSPRLLIYSTSNLASGVPARFSGSGSGTDYTLTISRLEPEDFASYFCHQWSSYPPTFGSGTKLEIKR"
1.6,1.6,"G2vkv (humanized P3D12, VH-ven + VL-ven) (antibody, V domains shown, Humanized and isotype switched version of P3D12) VH: QVQLVQSGAEVAKPGASVKMSCKASGYTFTSYWMHWVKQAPGQGLDWIGYIKPSTDNTEYNQKFKDKATLTADKSTSTAYMQLSSLRSEDTAVYYCARSYGNYPLMDYWGQGTTVTVSS VL: QIVLTQSPATMSASPGERVTLSCSASSSVTSNYLYWYQQKPGSSPRLWIYSTSNLASGVPARFSGSGSGTSYTLTISRMEPEDAASYFCHQWSSYPPTFGSGTKLEIKR"
